Drawing on article PMC3592454, this text covers Kd for 2 molecules.

For the data set, the target named is RNA polymerase holoenzyme with sigma70 Q437A (Escherichia coli, UniProt P00579;P0A7Z4;P0A8V2;P0A8T7;P0A800 1-613;1-329;1-1342;1-1407;2-91, Q437A). Description: fluorescence anisotropy.

B1: P1 galP1+P2-P3+ (dsDNA)
DNA 1: TTTTCGCATCTTTTCGTTGCTATGGTTATTTCATACCATAAGCCTAATGGAGCGAATTATGAG
DNA 2: CTCATAATTCGCTCCATTAGGCTTATGGTATGAAATAACCATAGCAACGAAAAGATGCGAAAA
modifications: 5'-C6-amino linker
The Kd is the concentration at which binding is half-saturated. High values mean weaker binding, low ones tighter binding. B1 showed a Kd of 0.76 ± 0.1 nM.

B2: PR (WT) (dsDNA)
DNA 1: GCGTGTTGACTATTTTACCTCTGGCGGTGATAATGGTTGCATGTACTAAGGAGGTTGTATGGAACAACGCA
DNA 2: TGCGTTGTTCCATACAACCTCCTTAGTACATGCAACCATTATCACCGCCAGAGGTAAAATAGTCAACACGC
modifications: 5'-C6-amino linker
In the case of B2, the Kd turned out to be 14.9 nM.
